The test addresses HLA-A*02:01. Put plainly: IEDB peptide-MHC binding, purified MHC/competitive/radioactivity; filed as Kd, often an IC50 or EC50 that approximates it; ≥ and ≤ were set here for values at or beyond the usual limits of such assays. The note with it: source organism: Trypanosoma cruzi.

On to FLLLGLWGFA, for which the dissociation constant Kd is 0.207 µM.

For the sequence FLYNRPLSV, the Kd was 0.146 µM.

On to FVDYNFTIV, for which the Kd was 0.24 µM.

Turning to FVNHDFTVV, the Kd turned out to be 0.3 µM.

In the case of GIRPYEILA, the Kd worked out at 0.033 µM.

IAGGVMAVV: the Kd turned out to be 0.196 µM.

As to IVMGNGTLV, the Kd was determined as 0.998 µM.

With KLFPEVIDL, the Kd stood at 0.203 µM.

Take LLGLWGLTGL: the Kd worked out at 0.0013 µM.

As for LLLGLWGFAA, the equilibrium dissociation constant (Kd) came to 0.534 µM.

Regarding LLLLGLWGL, the Kd stood at 0.022 µM.

Consider LLPSLFLLL, for which the Kd turned out to be 0.125 µM.

Take LLYSDDALHL: the Kd is 0.317 µM.

With MLQDGNKGSV, the Kd was 0.84 µM.

On to PLLLLGLWGL, for which the Kd came to 0.643 µM.

Turning to SVYVDAKLV, the dissociation constant (Kd) turned out to be 0.102 µM.

On to VLAKDGTEV, for which the Kd is 0.067 µM.

For the sequence VLLPSLFLL, the Kd was 0.036 µM.

VLLPSLFLLL: the Kd was found to be 0.099 µM.

On to WVFPESISPV, for which the Kd was 0.109 µM.

One may read the Kd as the constant that tells how readily two partners part at equilibrium.

The values are drawn from the Immune Epitope Database (IEDB).
